Molecular target: wild-type unmodified 147 bp nucleosome (nucleosome core particle), P04908;P62807;Q71DI3;P62805
Assay: EMSA
Conditions: chain shown with the change

Binder | Kd | Kd (0-32 µM KDM5A^MutR titration)
KDM5A^CAT (lysine demethylase 5A, residues 1-801), P29375 R210A; R217A; R219A; R220A; R232A; R264A; R265A; R266A; R271A; R280A; R282A (protein) MAGVGPGGYAAEFVPPPECPVFEPSWEEFTDPLSFIGRIRPLAEKTGICKIRPPKDWQPPFACEVKSFRFTPRVQRLNELEAMTRVRLDFLDQLAKFWELQGSTLKIPVVERKILDLYALSKIVASKGGFEMVTKEKKWSKVGSRLGYLPGKGTGSLLKSHYERILYPYELFQSGVSLMGVQMPNLDLKEKVEPEVLSTDTQTSPEPGTAMNILPKATAAVKTQSESGDVSANTELKKLQIFGAGPKVVGLAMGTKDKEDEVTAAAKVTNASDAFNMQMAQAKGTLSVNFVDLYVCMFCGRGNNEDKLLLCDGCDDSYHTFCLIPPLPDVPKGDWRCPKCVAEECSKPREAFGFEQAVREYTLQSFGEMADNFKSDYFNMPVHMVPTELVEKEFWRLVSSIEEDVIVEYGADISSKDFGSGFPVKDGRRKILPEEEEYALSGWNLNNMPVLEQSVLAHINVDISGMKVPWLYVGMCFSSFCWHIEDHWSYSINYLHWGEPKTWYGVPSHAAEQLEEVMRELAPELFESQPDLLHQLVTIMNPNVLMEHGVPVYRTNQCAGEFVVTFPRAYHSGFNQGYNFAEAVNFCTADWLPIGRQCVNHYRRLRRHCVFSHEELIFKMAADPECLDVGLAAMVCKELTLMTEEETRLRESVVQMGVLMSEEEVFELVPDDERQCSACRTTCFLSALTCSCNPERLVCLYHPTDLCPCPMQKKCLRYRYPLEDLPSLLYGVKVRAQSYDTWVSRVTEALSANFNHKKDLIELRVMLEDAEDRKYPENDLFRKLRDAVKEAETCASVAQLL | 14 µM | 14 µM
KDM5A^CAT (lysine demethylase 5A, residues 1-801), P29375 R280A; R282A (protein) MAGVGPGGYAAEFVPPPECPVFEPSWEEFTDPLSFIGRIRPLAEKTGICKIRPPKDWQPPFACEVKSFRFTPRVQRLNELEAMTRVRLDFLDQLAKFWELQGSTLKIPVVERKILDLYALSKIVASKGGFEMVTKEKKWSKVGSRLGYLPGKGTGSLLKSHYERILYPYELFQSGVSLMGVQMPNLDLKEKVEPEVLSTDTQTSPEPGTRMNILPKRTRRVKTQSESGDVSRNTELKKLQIFGAGPKVVGLAMGTKDKEDEVTRRRKVTNRSDAFNMQMAQAKGTLSVNFVDLYVCMFCGRGNNEDKLLLCDGCDDSYHTFCLIPPLPDVPKGDWRCPKCVAEECSKPREAFGFEQAVREYTLQSFGEMADNFKSDYFNMPVHMVPTELVEKEFWRLVSSIEEDVIVEYGADISSKDFGSGFPVKDGRRKILPEEEEYALSGWNLNNMPVLEQSVLAHINVDISGMKVPWLYVGMCFSSFCWHIEDHWSYSINYLHWGEPKTWYGVPSHAAEQLEEVMRELAPELFESQPDLLHQLVTIMNPNVLMEHGVPVYRTNQCAGEFVVTFPRAYHSGFNQGYNFAEAVNFCTADWLPIGRQCVNHYRRLRRHCVFSHEELIFKMAADPECLDVGLAAMVCKELTLMTEEETRLRESVVQMGVLMSEEEVFELVPDDERQCSACRTTCFLSALTCSCNPERLVCLYHPTDLCPCPMQKKCLRYRYPLEDLPSLLYGVKVRAQSYDTWVSRVTEALSANFNHKKDLIELRVMLEDAEDRKYPENDLFRKLRDAVKEAETCASVAQLL | 7.8 µM | 

More lines, in order of falling Kd, values ahead:

Kd | Kd (0-32 µM KDM5A^MutR titration) | Binder
12 µM |  | KDM5A^CAT (lysine demethylase 5A, residues 1-801), P29375 R217A; R219A; R220A (protein) MAGVGPGGYAAEFVPPPECPVFEPSWEEFTDPLSFIGRIRPLAEKTGICKIRPPKDWQPPFACEVKSFRFTPRVQRLNELEAMTRVRLDFLDQLAKFWELQGSTLKIPVVERKILDLYALSKIVASKGGFEMVTKEKKWSKVGSRLGYLPGKGTGSLLKSHYERILYPYELFQSGVSLMGVQMPNLDLKEKVEPEVLSTDTQTSPEPGTRMNILPKATAAVKTQSESGDVSRNTELKKLQIFGAGPKVVGLAMGTKDKEDEVTRRRKVTNRSDAFNMQMRQRKGTLSVNFVDLYVCMFCGRGNNEDKLLLCDGCDDSYHTFCLIPPLPDVPKGDWRCPKCVAEECSKPREAFGFEQAVREYTLQSFGEMADNFKSDYFNMPVHMVPTELVEKEFWRLVSSIEEDVIVEYGADISSKDFGSGFPVKDGRRKILPEEEEYALSGWNLNNMPVLEQSVLAHINVDISGMKVPWLYVGMCFSSFCWHIEDHWSYSINYLHWGEPKTWYGVPSHAAEQLEEVMRELAPELFESQPDLLHQLVTIMNPNVLMEHGVPVYRTNQCAGEFVVTFPRAYHSGFNQGYNFAEAVNFCTADWLPIGRQCVNHYRRLRRHCVFSHEELIFKMAADPECLDVGLAAMVCKELTLMTEEETRLRESVVQMGVLMSEEEVFELVPDDERQCSACRTTCFLSALTCSCNPERLVCLYHPTDLCPCPMQKKCLRYRYPLEDLPSLLYGVKVRAQSYDTWVSRVTEALSANFNHKKDLIELRVMLEDAEDRKYPENDLFRKLRDAVKEAETCASVAQLL
10.3 µM |  | KDM5A^CAT (lysine demethylase 5A, residues 1-801), P29375 R264A; R265A; R266A; R271A (protein) MAGVGPGGYAAEFVPPPECPVFEPSWEEFTDPLSFIGRIRPLAEKTGICKIRPPKDWQPPFACEVKSFRFTPRVQRLNELEAMTRVRLDFLDQLAKFWELQGSTLKIPVVERKILDLYALSKIVASKGGFEMVTKEKKWSKVGSRLGYLPGKGTGSLLKSHYERILYPYELFQSGVSLMGVQMPNLDLKEKVEPEVLSTDTQTSPEPGTRMNILPKRTRRVKTQSESGDVSRNTELKKLQIFGAGPKVVGLAMGTKDKEDEVTAAAKVTNRSDAFNMQMRQRKGTLSVNFVDLYVCMFCGRGNNEDKLLLCDGCDDSYHTFCLIPPLPDVPKGDWRCPKCVAEECSKPREAFGFEQAVREYTLQSFGEMADNFKSDYFNMPVHMVPTELVEKEFWRLVSSIEEDVIVEYGADISSKDFGSGFPVKDGRRKILPEEEEYALSGWNLNNMPVLEQSVLAHINVDISGMKVPWLYVGMCFSSFCWHIEDHWSYSINYLHWGEPKTWYGVPSHAAEQLEEVMRELAPELFESQPDLLHQLVTIMNPNVLMEHGVPVYRTNQCAGEFVVTFPRAYHSGFNQGYNFAEAVNFCTADWLPIGRQCVNHYRRLRRHCVFSHEELIFKMAADPECLDVGLAAMVCKELTLMTEEETRLRESVVQMGVLMSEEEVFELVPDDERQCSACRTTCFLSALTCSCNPERLVCLYHPTDLCPCPMQKKCLRYRYPLEDLPSLLYGVKVRAQSYDTWVSRVTEALSANFNHKKDLIELRVMLEDAEDRKYPENDLFRKLRDAVKEAETCASVAQLL

From article PMC12443421
